Measurements from patent publication US20210340232A1, “MONOCLONAL ANTIBODIES AGAINST HUMAN DICKKOPF3 AND USES THEREOF” (Board of Regents, The University of Texas System, priority 2018, published 2021).

What was measured:
CD3+ T cells = assay: T cell division assay (CFSE); type: cell-based, human; conditions: stimulated CD3+ T cells, DKK3 5-10 μg/mL
Protocol: FIGS. 6A-F. DKK3 blockade is associated with increased tumor immune infiltrates and improves response to checkpoint inhibitor therapy. (FIG. 6A) T cells were stimulated, treated with DKK3 (5-10 μg/mL) and proliferation was measured by CFSE assay. In a syngeneic orthotopic model with luciferase-labeled KPC cells, tumors were examined for CD3 and CD8 expression by IHC (FIG. 6B) and additional markers of T cell activity were measured by quantitative PCR (FIG. 6C). Mice in this model were treated with either control IgG, DKK3 mAb JM6-6-1, αCTLA4 or the combination JM6-6-1+αCTLA4 and tumor growth was measured by IVIS imaging to 25 and 190 days (FIG. 6D). Survival in this orthotopic implantation model is shown in (FIG. 6E). Using a GEMM (FIG. 6F), KPC/DKK3^+/+ (black line) or KPC/DKK3^−/− (blue line) mice were treated with αCTLA4 or control IgG and the Kaplan Meier survival curve is shown. *p<0.05, **p<0.01, ***p<0.001.
T cell division assay. Peripheral blood mononuclear cells (PBMC) were obtained from buffy coat by density centrifugation using Histopaque 1077 (Sigma) and CD3^+ T-cells were isolated using a pan T-cell isolation kit (Miltenyi Biotec). […] DKK3 or HPSC-CM was added and after 96 hours, cells were stained for CD3, CD4, and CD8 to define lineage and analyzed by flow cytometry. […]

NF-κB = NF-κB luciferase reporter assay in Panc28; type: cell-based, human; conditions: parental Panc28 cells
Protocol: FIGS. 3A-F. NF-κB is activated in PSCs and PDAC cells by DKK3 and is necessary for DKK3-mediated stimulation of cell activity. (FIG. 3A) Phosphorylation of p65 and IκBα induced by DKK3 treatment (10 μg/ml) was determined by Western blotting. Relative protein loading was shown by using anti-β-actin antibody. (FIG. 3B) Time course of p65 activation by WB in HPSC and Panc1 cells. Cells were treated with recombinant DKK3 (10 μg/ml) for 0-24 h and change in band density relative to baseline were quantified. (FIG. 3C) DKK3 stimulates NFκB luciferase reporter in HPSC & PDAC cells, with mutant luc reporter (MT). NFκB activity induced by DKK3 was measured in Panc28 with phosphorylation-defective IκBαM by luciferase reporter (FIG. 3D) and Western blotting (FIG. 3E). For FIGS. 3C&D, in each set of three columns, the left is “PBS,” the middle is “DKK3,” and the right is “TNFα.” (FIG. 3F) Proliferation of Panc28 and Panc28/IκBαM was measured by MTT assay. *p<0.05, **p<0.01, ***p<0.001 and ****p<0.0001 vs. PBS control.
NF-κB activity. NF-κB activity was determined by using a luciferase reporter assay. […] Luciferase signal was detected by using D-luciferin firefly potassium salt (Caliper Life Sciences, Hopkinton, Mass.) and the IVIS® imaging system (Xenogen Corp., Alameda, Calif.). […]

Panc1 cells = assay: Panc1 cell migration and invasion after rhDKK3; type: cell-based, human; conditions: Panc1, 10 μg/mL, 24 hours
Protocol: FIGS. 2A-J. DKK3 stimulates HPSC and PDAC activity and increases chemoresistance. (FIG. 2A) HPSC proliferation was measured by MTT after treatment with PBS or rhDKK3 (10 μg/ml). DKK3 was silenced in HPSCs by shDKK3 (FIG. 2B) and cell proliferation was measured by MTT assay (FIG. 2B) and migration was determined at 24 hours (FIG. 2C). Control cells were transfected with scrambled shRNA. (FIG. 2D) Panc1 cells were treated with rhDKK3 (10 μg/ml) or serum-free media control, and cell migration and invasion were measured after 24 hours. (FIGS. 2E-F) Panc1 cells were stably silenced for DKK3 and cell proliferation (FIG. 2E) and colony formation in soft agar (FIG. 2F) were measured. (FIG. 2G) BxPC3 cell migration was measured after treatment with CM from HPSCs or HPSCs silenced for DKK3. Soft agar colony formation (FIG. 2H) in gemcitabine and apoptosis (FIG. 2I) was determined in chemosensitive L3.6p1 cells expressing DKK3 compared with transfection controls. (FIG. 2J) Gemcitabine-induced apoptosis was measured in chemoresistant HS766T cells silenced for DKK3. *p<0.01, **p<0.001, ***p<0.0001, ****p<0.00001.
(§1) Cell-based assays. Cell proliferation was measured by the MTS assay (Promega, Madison, Wis.). […]

BxPC3 cells [1] = assay: BxPC3 Transwell migration in response to rhDKK3; type: cell-based, human; conditions: BxPC3, rhDKK3 10 μg/ml, 48 hours
Protocol: (§2) HPSCs and BxPC3 cells were treated with DKK3 mAb clones JM6-6-1 and JM8-12-1 or isotype control mAb or PBS. (FIGS. 5A-B) HPSC apoptosis and migration as measured by FACS and Transwell migration assay at 48 hours. (FIG. 5C) BxPC3 migration in response to rhDKK3 10 μg/ml as measured by Transwell migration assay at 48 hours. (FIG. 5D) BxPC3 resistance to gemcitabine 100 μM as measured by MTS proliferation assay at 6 days. HPSC-CM, pancreatic stellate cell conditioned media, 10 μg/ml. The orthotopic co-injection BxPC3+ HPSC model of PDAC was used to test the efficacy of DKK3 mAb clones JM6-6-1 or JM8-12-1 (5 mg/kg i.p. once every 5 days). (FIG. 5E) Overall tumor progression was measured every 3-4 days by IVIS imaging. (FIG. 5F) Metastatic tumors in the peritoneal cavity after removal of the primary pancreatic tumor are shown by IVIS imaging. (FIG. 5G) Kaplan Meier survival curve showing mice treated with DKK3 mAb clone JM8-12 (right-most line), control mAb (middle line), or PBS (left-most line). (FIG. 5H) KPC mice (P48-Cre; Kras LSL-G12D;Trp53fl/fl) with either wild type DKK3 (solid lines) or deficient in DKK3 (“DKK3-KO,” dashed lines) were treated with DKK3 mAb JM6-6-1 (5 mg/kg i.p. once every 5 days), PBS or control mAb. […]
as §1

BxPC3 cells [2] = assay: BxPC3 resistance to gemcitabine, MTS proliferation assay; type: cell-based, human; conditions: BxPC3, gemcitabine 100 μM, HPSC-CM 10 μg/ml, 6 days
Protocol: as §2, §1

[3] = test system: BxPC3 + HPSC orthotopic tumors; assay: Orthotopic co-injection BxPC3 + HPSC nude mouse model of PDAC; type: in vivo; conditions: 5 mg/kg i.p. once every 5 days
Protocol: HPSCs and BxPC3 cells were treated with DKK3 mAb clones JM6-6-1 and JM8-12-1 or isotype control mAb or PBS. (FIGS. 5A-B) HPSC apoptosis and migration as measured by FACS and Transwell migration assay at 48 hours. (FIG. 5C) BxPC3 migration in response to rhDKK3 10 μg/ml as measured by Transwell migration assay at 48 hours. (FIG. 5D) BxPC3 resistance to gemcitabine 100 μM as measured by MTS proliferation assay at 6 days. HPSC-CM, pancreatic stellate cell conditioned media, 10 μg/ml. The orthotopic co-injection BxPC3+ HPSC model of PDAC was used to test the efficacy of DKK3 mAb clones JM6-6-1 or JM8-12-1 (5 mg/kg i.p. once every 5 days). (FIG. 5E) Overall tumor progression was measured every 3-4 days by IVIS imaging. (FIG. 5F) Metastatic tumors in the peritoneal cavity after removal of the primary pancreatic tumor are shown by IVIS imaging. (FIG. 5G) Kaplan Meier survival curve showing mice treated with DKK3 mAb clone JM8-12 (right-most line), control mAb (middle line), or PBS (left-most line). (FIG. 5H) KPC mice (P48-Cre; Kras LSL-G12D;Trp53fl/fl) with either wild type DKK3 (solid lines) or deficient in DKK3 (“DKK3-KO,” dashed lines) were treated with DKK3 mAb JM6-6-1 (5 mg/kg i.p. once every 5 days), PBS or control mAb. Kaplan Meier survival curve is shown with hazard ratios (Log-rank test). *p<0.05, **p<0.01, ***p<0.001, ****p<0.0001 vs. control Ab.
An orthotopic nude mouse model of PDAC using BxPC3 cancer cells labeled with firefly luciferase (BxPC3-FL) co-injected with HPSCs has been previously described (Hwang et al., 2008). Mice received intrapancreatic injections of BxPC3-FL (1×10^6 per mouse) with HPSC-shControl or HPSC-shDKK3 in a tumor-to-stroma ratio of 1:0 or 1:3 in 50-μL of HBSS and tumor growth was monitored using IVIS imaging (Hwang et al., 2008). In addition, a syngeneic immunocompetent DKK3 null model was used, provided by Dr. C. Niehrs (Barrantes Idel et al., 2006), that was injected with murine PDAC cells (termed “KPC cells”) isolated from tumors arising in a GEMM of PDAC (Pdx1-Cre; Kras^LSL-G12D;Trp53^R172H/+) (Hingorani et al., 2005; Hingorani et al., 2003) and labeled with luciferase.
The efficacy of DKK3 mAb was tested in vivo using the previously described orthotopic co-implantation nude mouse model of PDAC with human PSCs mixed with luciferase-labeled BxPC3 cancer cells (1:3 tumor:PSC ratio). Mice were treated with either phosphate-buffered saline (PBS), isotype control mAb, or DKK3 mAb (clone JM6-6-1; 5 mg/kg i.p. once every 5 days) and tumor growth was followed with IVIS imaging. […] Tumors in the PBS and control mAb groups grew rapidly from day 22 onward, with an 8-fold increase in the luciferase signal.

recombinant mouse DKK3 = target: T1, recombinant mouse DKK3 (mouse, UniProt Q9QUN9 23-349, limits assumed); assay: non-denaturing Western blot of recombinant protein
T1 construct: also called murine DKK3

recombinant human DKK3 = target: T2, recombinant human DKK3 (human, UniProt Q9UBP4 22-350); assay: non-denaturing Western blot of recombinant protein
T2 construct: Bought recombinant protein (R&D); also called rhDKK3; recombinant human DKK-3/His
T2 sequence (Q9UBP4 22-350 limits assumed): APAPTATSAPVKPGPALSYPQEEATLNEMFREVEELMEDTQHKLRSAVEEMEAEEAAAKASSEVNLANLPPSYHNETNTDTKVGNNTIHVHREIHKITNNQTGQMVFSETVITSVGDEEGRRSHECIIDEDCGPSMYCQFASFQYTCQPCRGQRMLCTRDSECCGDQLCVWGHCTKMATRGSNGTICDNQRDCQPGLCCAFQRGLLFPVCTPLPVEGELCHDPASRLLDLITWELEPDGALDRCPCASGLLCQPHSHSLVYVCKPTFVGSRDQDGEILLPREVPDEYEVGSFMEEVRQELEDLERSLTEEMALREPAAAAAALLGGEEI

T1 sequence (Q9QUN9 23-349 limits assumed): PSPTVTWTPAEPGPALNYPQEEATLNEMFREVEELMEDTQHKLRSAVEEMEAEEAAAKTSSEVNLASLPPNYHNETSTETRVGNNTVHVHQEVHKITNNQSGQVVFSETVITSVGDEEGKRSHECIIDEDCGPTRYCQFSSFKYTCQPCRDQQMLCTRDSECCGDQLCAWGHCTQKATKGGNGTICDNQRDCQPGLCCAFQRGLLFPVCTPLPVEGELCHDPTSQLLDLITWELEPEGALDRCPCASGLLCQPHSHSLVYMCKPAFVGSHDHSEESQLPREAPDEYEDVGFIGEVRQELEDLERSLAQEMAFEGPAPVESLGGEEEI

Molecule: rhDKK3: recombinant human DKK3 (R&D)
- inhibition of cell proliferation compared to media alone (CD3+ T cells): 4.7-11.5 fold
- induction of NF-κB promoter activity relative to PBS control (NF-κB): 33%
- increase in invasion vs PBS controls (Panc1 cells): > 3 fold
- increase in migration vs PBS controls (Panc1 cells): ~100%

B1: JM8-12-1: monoclonal antibody against human DKK3; heavy chain variable SEQ ID NO: 17, light chain variable SEQ ID NO: 18 (tabled as JM8-12-2) (antibody, V domains shown)
VH: MKPSQSLSLTCTVTGYSITSDYAWNWIRQFPGNKLEWMGYISYRGSTRYNPSLKSRISITRDTSKNQLYLQLHSVTTEDTATYYCVHDGYYWVQQTLVTVSAAKTTPPSDY
VL: QDPRVDIVLTQSPASLAVSLFQRATISYRASKSVSTSGYSYMHWNQQKPGQPPRLLIYLVSNLESGVPARFSGSGSGTDFTLNIHPVEEEDAATYYCQHIRELTRSEGGPSWK
- effect on DKK3-mediated induction of migration (BxPC3 cells [1]): reverse the DKK3-mediated induction of migration
- effect on DKK3-mediated chemoresistance to gemcitabine (BxPC3 cells [2]): abrogated the DKK3-mediated induction of chemoresistance to gemcitabine
- hazard ratio compared with PBS control group [3]: 0.26
- median survival [3]: 50 days

B2: DKK3 mAb clone JM6-6-1 (antibody, V domains shown)
VH: EVKLVESGGGLVKPGGSLKLSCAASGFTFTIEYMAWIRQTPEKRLEWVASISSGGDDIYYADNVKGRFTISRDNAKNTLYLQMSSLKSEDTAIYYCSRSLSDWGQGTTLTVSS
VL: MTQTPLSLPVSLGDQASISCRSSQSILHSNGHTYLEWYLQKPGQSPKLLIYKVSNRFSGVPDRFSGSGSGTDFTLKISRVEAEDLGVYYCFQGSHVPFTFGSGTKLEIER
notes: Mouse hybridoma mAb from A/J mice immunized with recombinant human DKK-3/His; the negative control is an IgG1 isotype control; also called anti-DKK3 mAb JM6-6-1; DKK3 antibody JM6-6-1
- binding result (recombinant mouse DKK3): binds
- binding result (recombinant human DKK3): binds
